From the nanobody polyreactivity screen of Harvey et al. (2022)

Assay: yeast display, Sf9 membrane polyspecificity reagent, FACS + sequencing; frameworks hold sequencing errors
How it was run: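 Synthetic nanobody libraries on Saccharomyces cerevisiae BJ5465 were galactose-induced for 36–48 hours, stained 1 hour at 4 °C with 10% biotinylated, detergent-solubilized Sf9 membrane reagent and enriched on streptavidin microbeads. FACS then separated cells into low and high (top ~1%) gates by anti-HA (expression) and streptavidin (reagent binding) fluorescence. Genes were colony-PCR amplified, MiSeq 2 × 250 sequenced and CDR-length filtered. A clone's polyreactivity label is that of its gate of origin.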

Sequence	polyreactivity (PSR sort gate)
QVQLLESGGGLVQAGGSLRLSCAASGSIFGLYAMGWYRQAPGKERELVAALTWSSGNTYYADSVKGRFTISRDNAKNTVYLQMNSLKPEDTAVYYCSARVYRYGAMDYWGQGTQVTVSS	high polyreactivity
QVQLVESGGGLVEAGGSLRLSCAASGRTFDYNAMGWYRQAPGKERELVAAISRGGSTYYADSVKGRFTISRDNPNNSVYLQMNSLKPEDTAVYYCAALYVRVGYDYWGQGTQVTVSS	high polyreactivity
QVQLVESGGGLVQAGGSLRLSCAASGSTLGKYAMGWYRQAPGKERELVARITLNGGRTYYADSVKGRFTISRDNAKNTVYLQMNSLKPEDTAVYYCAKSLPHSTSRDYWGQGTQVTVSS	low polyreactivity
QVQLVESGGGLVQAGGSLRLSCAASGITFATNAMGWYRQAPGKERELVAGITSGGSTYYADSVKGRFTISRDNAKNTVYLQMNSLKPEDTAVYYCNTAVKVERDYWGQGTQVTVSS	low polyreactivity
QDQLVESGGGLVQAGGSLRLSCAASGSIFVENAMGWYRQAPGKEREFVAAITRSGGSTYYADSVKGRFTISRDNAKNPVYLQMNSMKPEDTAVYYCAARIWDEQPAAGYYWGQGTQVTVSS	low polyreactivity
QVQLVESGGGLVQAGGSLRLSCAASGRIFNYYAMGWYRQAPGKERELVAAISARGGSTYYADSVKGRFTISRDNAKNTVYLQMNSLKPEDTAVYYCAVSSGSYGYGYWGQGTQVTVSS	high polyreactivity
QVQLVESGGGLVQAGGSLRLSCAASGRILAIYAKGWYRQAPGKERELVAGITYSAGSTYYADSVKGRFTISRDNAKNTVYLQMNSLKPEDTAVYYCAALEYNSHRYGYDYWGQGTQVTVSS	low polyreactivity
QVQLVESGGGLVQAGGSLRLSCAASGRTFGSNTMGWYRQAPGKERELVAAISGTGTSTYYADSVKGRFTISRDNAKNTVYLQMNSLKPEDTAVYYCAAGWYKYLFQPHDYWGQGTQVTVSS	low polyreactivity
QVQLVESGGGLVQAGGSLRLSCAASGFIFGYYAMGWYRQAPGKERELVAAISWSGVSTYYADSVKARFTISRDNAKNTVSLQMNSLKREDTAVYYCAFGYVLTGVFQARFDYWGQGTQVTVSS	high polyreactivity
QVQLVESGGGLVQAGGSLRLSCAASGFIFEAYTMGWSRQAPGKERELVASIDWDGGSTYYADSVKGRFTISRDNAKNTVYLQMNSLKPEDTAVYYCAADSRQYDELGDYDYWGQGTQVTVSS	low polyreactivity
QVQLVESGGGLVQAGGSLRLSCAASGATFYLNDMGWYREAPGKERELVAAIDWSGGSTYYADSVKGRFTISRDNAKNTVYLQMNSLKPEDTAVYYCAARLVYEWRRLDYFIAWDYCGQGTQVTVSS	low polyreactivity
QVQLVESGGGLVQAGGSLRLSCAASGSTFKPYAMGWYRQAPGKERELVAAISKSGGSTRYADSVKGRFTISRDNAKNTVYLQMNSLKPEDTAVYYCAADYIYVKYEYWGQGTQVTVSS	high polyreactivity
QVQLVESGGGLVQAGGSLRLSCAASGRIFRYNAMGWYRQAPGKERELVASISSSGGSTYYADSVKGRFTISRDTAKNTVYLQMNCLKPEDTAVYYCSAYPGDRHSRINLGYWGQGTQVTVSS	high polyreactivity
QVQLVESGGCLVQAGGSLRLSCAATGRTFHGYAMGWYRQAPGKERELVAAITSSGARTYYADSVKGRFTISRDNAKNTVYLQMNSLKPEDTAVYYCAKRGKQYRKMNYWGQGTQVTVSS	high polyreactivity
QVQLVESGGGLVQAGGSLRLSCAASGITFRKYFMGWYRQAPGKERELVATITRNGGTTNYADSVKGRFTISRDNAKNTVYLQMNSLKPEDTAVYYCAAPGPGYIYLGFDYWGQGTQVTVSS	high polyreactivity
QVQRVESGVRLVQAGGSLRLSCASSGSIFRYYTMGWYRQAPGKERELVAAISRSGGSTYYADSVKGRFTISRDNAKNTVYLQMNSLKPVDTGVYYCAARYKRAQGYREGDYWGQGTQVTVSS	high polyreactivity
QVRLVESGGGLVQAGCSLRLSCAASGRTFGRYAIGWYRQAPGTERELVAAITGSGGSTYYADSVKGRFTISRDNAKNTVYLQMNSLKPVDTPVYYCNAGWRLGRGYWGQGTQVTLSS	high polyreactivity
